From patent publication US20230093155A1
Several values for one entry are separate records, joined by “and”; a condition that tells them apart may be missing. Equal entries are not always repeated.

target: IL-2Rβ and γc complex expressed on the lymphocytes (human) (UniProt P14784); assay: cell-based or functional assay
Sequence (P14784 27-551, chain 1 of 2): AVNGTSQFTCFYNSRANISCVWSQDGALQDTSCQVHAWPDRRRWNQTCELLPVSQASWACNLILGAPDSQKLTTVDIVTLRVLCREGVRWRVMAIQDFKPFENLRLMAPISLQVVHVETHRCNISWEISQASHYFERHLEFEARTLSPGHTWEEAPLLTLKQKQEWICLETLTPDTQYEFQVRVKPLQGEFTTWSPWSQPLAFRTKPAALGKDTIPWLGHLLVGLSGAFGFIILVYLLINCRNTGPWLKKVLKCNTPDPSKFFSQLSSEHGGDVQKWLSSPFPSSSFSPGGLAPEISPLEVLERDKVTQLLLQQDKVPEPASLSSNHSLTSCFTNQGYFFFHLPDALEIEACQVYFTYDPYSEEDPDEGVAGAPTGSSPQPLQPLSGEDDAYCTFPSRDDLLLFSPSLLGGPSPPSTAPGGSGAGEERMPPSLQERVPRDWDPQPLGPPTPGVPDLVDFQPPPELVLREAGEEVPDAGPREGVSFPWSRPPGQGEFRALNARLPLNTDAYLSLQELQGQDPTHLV
Sequence (P31785 23-369, chain 2 of 2, further chain): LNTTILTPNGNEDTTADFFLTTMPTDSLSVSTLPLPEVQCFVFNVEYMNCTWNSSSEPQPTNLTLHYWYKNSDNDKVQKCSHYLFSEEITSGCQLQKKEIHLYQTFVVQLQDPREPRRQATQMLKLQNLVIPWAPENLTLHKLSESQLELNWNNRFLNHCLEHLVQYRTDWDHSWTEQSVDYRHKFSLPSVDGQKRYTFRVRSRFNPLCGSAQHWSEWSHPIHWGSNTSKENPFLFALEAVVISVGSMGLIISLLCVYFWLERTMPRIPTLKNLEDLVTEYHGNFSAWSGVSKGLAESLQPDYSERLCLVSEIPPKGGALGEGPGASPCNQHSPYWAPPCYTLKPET

Substance | CD8 T cell proliferation EC50 (pM) | Fold change vs. P-0313 [fold]
P-0313 (IL-15 S58D/IL-15Rα Fc fusion) (from UniProt Q13261 31-107) | 44 pM and 32 pM | 1
P-0356 (IL-15 I68F/IL-15Rα Fc fusion) (from UniProt Q13261 31-107) | 1250 pM | 29
P-0357 (IL-15 I68D/IL-15Rα Fc fusion) (from UniProt Q13261 31-107) | 296000 pM | 6730
P-0358 (IL-15 I68H/IL-15Rα Fc fusion) (from UniProt Q13261 31-107) | 419 pM | 9.5
P-0736 (IL-15 I68Q/IL-15Rα Fc fusion) (from UniProt Q13261 31-107) | 4470 pM | 102
P-0737 (IL-15 I68G/IL-15Rα Fc fusion) (from UniProt Q13261 31-107) | 14500 pM | 330
P-0738 (IL-15 I68K/IL-15Rα Fc fusion) (from UniProt Q13261 31-107) | 24800 pM | 564
P-0770 (IL-15 V63R/IL-15Rα Fc fusion) (from UniProt Q13261 31-107) | 184 pM | 5.8
P-0772 (IL-15 V63A/I68Q/IL-15Rα Fc fusion) (from UniProt Q13261 31-107) | 15400 pM | 485
P-0793 (IL-15 Q108A/IL-15Rα Fc fusion) (from UniProt P0DOX5 223-448; Q13261 31-107) | 68800 pM | 2170

Further lines, results first:

CD8 T cell proliferation EC50 (pM) | Fold change vs. P-0313 [fold] | Substance
62100 pM | 1960 | P-0764 (IL-15 Q108S/IL-15Rα Fc fusion protein) (from UniProt P0DOX5 223-448; Q13261 31-107)
48000 pM | 1510 | P-0768 (IL-15 V63A/I68G/IL-15Rα Fc fusion) (from UniProt Q13261 31-107)
360 pM | 11.3 | P-0769 (IL-15 V63K/IL-15Rα Fc fusion) (from UniProt Q13261 31-107)
132 pM | 4.2 | P-0771 (IL-15 V63A/IL-15Rα Fc fusion) (from UniProt Q13261 31-107)
1420 pM | 45 | P-0773 (IL-15 V63A/I68H variant/IL-15RαSushi Fc fusion protein) (from UniProt Q13261 31-107)
